# Experimental data reported in article PMC5514624.
# T1: SRCRP2-11-R (Homo sapiens, UniProt Q9UGM3, E4R)
# T1 chain: GRVRVLYRGSW
# T2: SRCRP2-11 (Homo sapiens, UniProt Q9UGM3)
# T2 chain: GRVEVLYRGSW
# B1: tdTomato1 siRNA (dsRNA)
# RNA 1: UUGGUGUCCACGUAGUAGUAG
# RNA 2: CUACUACUACGUGGACACCAA
# Columns and labels:
# SRCRP2-11-R = target: T1, SRCRP2-11-R; experiment: EMSA
# SRCRP2-11 = target: T2, SRCRP2-11; experiment: EMSA
binder,measurement,setting,value
B1,binding result,SRCRP2-11-R,binds
same,binding result,SRCRP2-11,binds
